Data taken from publication PMC4742757, “The Prodomain-bound Form of Bone Morphogenetic Protein 10 Is Biologically Active on Endothelial Cells*” (The Journal of Biological Chemistry, 2015).

What was measured:
[1] = target: T1, BMPR-II extracellular domain (ECD), human, residues 27-150 (human, UniProt Q13873-1 27-150); test: native gel or EMSA; 10% native PAGE of purified pBMP10 complex alone or with BMPR-II ECD (molar ratio pBMP10:BMPR-II ECD 1:1, 1:2, 1:4); bands excised and immunoblotted for BMP10 GFD and prodomain; settings: both partners purified
T1 construct: Bone morphogenetic protein receptor type II, human, extracellular domain, residues 27-150 (NM_001204); Cloned in pET39b as DsbA-(His)6-TEV site-BMPR2 ECD; also called BMPR-II ECD; BMPR2 ECD; source: E. coli Rosetta DE3, periplasmic extract, purified (Ni-NTA, TEV cleavage, second Ni-NTA flowthrough, S75 gel filtration); not shown: DsbA, N-terminal, cleaved; His6, N-terminal, cleaved
T1 sequence (looked up): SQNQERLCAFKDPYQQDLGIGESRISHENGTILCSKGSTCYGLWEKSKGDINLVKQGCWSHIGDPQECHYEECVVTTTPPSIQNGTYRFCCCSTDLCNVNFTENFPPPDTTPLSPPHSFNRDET

[2] = target: the molecule itself; test: non-reducing SDS-PAGE; peak gel filtration fraction of purified pBMP10 on non-reducing SDS-PAGE; Coomassie stain and anti-BMP10 immunoblot

binding result [1]: binds
B1: BMP10 growth factor domain (GFD), recombinant human, from the in-house pBMP10 complex (ligand, UniProt O95393 317-424, looked up)
chain: NAKGNYCKRTPLYIDFKEIGWDSWIIAPPGYEAYECRGVCNYPLAEHLTPTKHAIIQALVHLKNSQKASKACCVPTKLEPISILYLDKGVVTYKFKYEGMAVSECGCR
notes: Bone morphogenetic protein 10, human; the mature growth factor domain cut from full-length proBMP10 by furin; Expressed from full-length proBMP10 cDNA, co-transfected with furin; Covalently linked (D-form) and non-covalently linked (M-form) dimers are both in the preparation; also called BMP10 GFD; mature BMP10; source: HEK EBNA cells transfected with proBMP10 and furin in pCEP4; purified from …
binding result [2]: binds
